According to PMC6684798, “Structural basis for the target specificity of actin histidine methyltransferase SETD3” (Nature Communications, 2019):

Target: T1, SETD3 (Homo sapiens, UniProt Q86TU7)
T1 construct: GST (cleaved yes); made in house; host or cells: Escherichia coli BL21(DE3) CodonPlus
T1 sequence (Q86TU7 1-594): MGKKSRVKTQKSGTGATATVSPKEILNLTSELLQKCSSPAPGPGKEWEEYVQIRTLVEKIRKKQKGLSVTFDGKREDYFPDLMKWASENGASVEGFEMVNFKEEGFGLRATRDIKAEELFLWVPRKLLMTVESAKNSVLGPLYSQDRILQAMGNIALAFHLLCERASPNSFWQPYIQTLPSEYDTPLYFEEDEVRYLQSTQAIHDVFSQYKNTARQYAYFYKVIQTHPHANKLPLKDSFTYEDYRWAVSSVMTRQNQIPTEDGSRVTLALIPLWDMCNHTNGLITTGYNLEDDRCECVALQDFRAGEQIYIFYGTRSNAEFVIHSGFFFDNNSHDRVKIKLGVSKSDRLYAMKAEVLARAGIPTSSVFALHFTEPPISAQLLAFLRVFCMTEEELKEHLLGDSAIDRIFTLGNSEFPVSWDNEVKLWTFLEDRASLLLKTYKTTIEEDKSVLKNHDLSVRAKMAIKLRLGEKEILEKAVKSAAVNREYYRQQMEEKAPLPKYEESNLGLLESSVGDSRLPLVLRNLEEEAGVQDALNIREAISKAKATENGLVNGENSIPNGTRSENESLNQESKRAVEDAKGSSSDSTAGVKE
Test: SETD3 activity time course under conditions optimized for H73(66-80) (Supplementary Fig. 3a)
Type: biochemical
Conditions: pH 8.0, room temperature; for CH3 transferred: [E]=0.18 µM, [SAM]=40 µM, [S]=20 µM
Method: Recombinant human SETD3 (pXC2003) was expressed as a GST-fusion[22] in Escherichia coli BL21(DE3) CodonPlus^TM cells (Stratagene). The SETD3 mutants at residue 255 (N255A; pXC2093 and N255V; pXC2094) were generated with Q5 Site-Directed Mutagenesis Kit (New England Biolabs), confirmed by sequencing and the same protocol for expression and purification were followed. Briefly, the purification was conducted in a BIO-RAD NGC^TM system using a three-column chromatography of glutathione-sepharose, HiTrap Q-HP and Superdex 200. The GST tag was removed by PreScisson Protease (purified in-house). The purified SETD3 proteins at a concentration ~25–35 mg/ml were kept at −80 °C in storage buffer for future use [20 mM Tris (pH 8.0), 200 mM NaCl, 5% glycerol, and 0.5 mM tris (2-carboxyethyl) phosphine (TCEP)]. […]
conditions optimized for H73(66-80) (red line): [E]=0.18 µM, [SAM]=40 µM, [S]=20 µM, pH 8.0 at room temperature for indicated reaction time. b, SETD3 activity on H73(66-80) at two difference temperatures under the conditions of [E]=0.18 µM, [SAM]=40 µM, [SH7 3]=20 µM at pH 8. 0 for 20 min reaction. c, SETD3 activity on K73 (66-80 ) at room temperature (~22 °C) and 37 °C under the conditions of increased amounts of [E]=15 µM, [SAM]=100 µM and [S K73]=700 µM at pH 8.0 for overnight reaction. Data represent the mean ± SD of N number of independent determinations (N=2 in panels a and b and N=4 in panel c) performed in duplicate. […]

## K73(66–80): K73-containing (H73K) actin peptide, residues 66–80 (TLKYPIEKGIVTNWD; UniProt P60709 66-80, looked up, variant H73K)
0 min, replicate 1
  CH3 transferred: 0 µM
0 min, replicate 2
  CH3 transferred: 0 µM
10 min, replicate 1
  CH3 transferred: 0.00913 µM
10 min, replicate 2
  CH3 transferred: 0.005151 µM
20 min, replicate 1
  CH3 transferred: 0.005187 µM
20 min, replicate 2
  CH3 transferred: 0.000604 µM
30 min, replicate 1
  CH3 transferred: 0.002842 µM
30 min, replicate 2
  CH3 transferred: -0.00142 µM
[E] = 0.18 µM, [SAM] = 40 µM, [S] = 20 µM
  SETD3 activity under conditions optimized for H73 peptide: no activity
